Target: Aβ13-21 peptide (peptide 13)
Assay: ELISA, biotinylated peptide (Mimotopes protocol)

For Control IgG (antibody), the O.D was 0.171 O.D.

Reference: patent US20100080800A1
